According to patent US20130309172:

B1: human matrix metalloproteinase (MMP-2) (protein)
chain: YNFFPRKPKWDKNQITYRIIGYTPDLDPETVDDAFARAFQVWSDVTPLRFSRIHDGEADIMINFGRWEHGDGYPFDGKDGLLAHAFAPGTGVGGDSHFDDDELWTLGEGQVVRVKYGNADGEYCKFPFLFNGKEYNSCTDTGRSDGFLWCSTTYNFEKDGKYGFCPHEALFTMGGNAEGQPCKFPFRFQGTSYDSCTTEGRTDGYRWCGTTEDYDRDKKYGFCPETAMSTVGGNSEGAPCVFPFTFLGNKYESCTSAGRSDGKMWCATTANYDDDRKWGFCPDQGYSLFLVAAHEFGHAMGLEHSQDPGALMAPIYTYTKNFRLSQDDIKGIQELYGASPDIDLGTGPTPTLGPVTPEICKQDIVFDGIAQIRGEIFFFKDRFIWRTVTPRDKPMGPLLVATFWPELPEKIDAVYEAPQEEKAVFFAGNEYWIYSASTLERGYPKPLTSLGLPPDVQRVDAAFNWSKNKKTYIFAGDKFWRYNEVKKKMDPGFPKLIADAWNAIPDNLDAVVDLQGGGHSYFFKGAYYLKLENQSLKSVKFGSIKSDWLGC

Experiments:
[1] = test system: AuNP-PVGLIGC-PEG (cleavable)
[2] = target: AuNP-PVGLIGC-PEG (cleavable); remark: listed apart in the source
[3] = target: AuNP-GIVGPLC-PEG (noncleavable negative control)

Molecule | cleavage of the peptide coating of the AuNP conjugate (UV-vis) [1] | cleavage of the peptide coating of the AuNP conjugate (DLS, zeta potential, UV-vis, TEM, FFF) [2] | cleavage of the peptide coating of the AuNP conjugate (DLS, zeta potential, UV-vis, TEM, FFF) [3]
trypsin | Cleavable AuNPs treated with trypsin did not exhibit cleavage | – | –
B1 | – | cleavable AuNPs were converted to denuded AuNPs following exposure to MMP-2 | Non-cleavable control and blocker control AuNPs exhibited no cleavage
